For series [1], the system named is Wnt/β-catenin signaling. Description: TOPFlash luciferase reporter assay, LRP5-transfected HEK293 cells. Format: cell-based, human. To be noted: Wnt3A CM 5%, Rspo1 40 ng/ml, mMesd 2 µM, peptide at indicated concentrations, 24 h, normalized to β-galactosidase. The protocol: (§1) Cells were plated into 24-well plates. After overnight culture, the cells were transiently transfected with the TOPFlash or Super8XTOPFlash luciferase construct, β-galactosidase-expressing vector, and pcDNA3.1C-Myc-hLRP5, pCS-Myc-hLRP6 or control vector. After 24 h incubation, cells were treated with Mesd, Mesd peptide, Rspo1 and Wnt3A CM. Cells were then lysed 24 h later and both luciferase and β-galactosidase activities were determined. The luciferase activity was normalized to the β-galactosidase activity.

For series [2], the system named is MDA-MB-231 tumor. The conditions noted are these: cited from earlier work.
Series [3] concerns Wnt/β-catenin signaling. Description: Super8XTOPFlash luciferase reporter assay, HS578T cells. Type of series: cell-based, human. To be noted: 24 h treatment. The protocol: as §1
(A reporter such as luciferase makes a cellular process visible.)

For series [4], the system named is OPG expression. Description: Western blot of OPG expression in C2C12 cells. Type of series: cell-based, mouse. To be noted: 48 h, mMesd 0.5 µM. The protocol:
(§2) Cells in 6-well plates were lysed in 0.5 ml of lysis buffer (phosphate-buffered saline containing 1% Triton X-100 and 1 mM PMSF) at 4°C for 10 min. Equal quantities of protein were subjected to SDS-PAGE under reducing conditions. Following transfer to immobilon-P transfer membrane, successive incubations with anti-HA, anti-Wnt10b, anti-β-catenin, anti-OPG, anti-phosphorylated-LRP6, anti-LRP6, anti-Axin2, anti-Cyclin D1 or anti-actin, and horseradish peroxidase-conjugated secondary antibody were carried out for 60–120 min at room temperature. The immunoreactive proteins were then detected using the ECL system. Films showing immunoreactive bands were scanned by Kodak Digital Science DC120 Zoom Digital Camera.
Background: A western blot detects proteins with antibodies after separation by electrophoresis.

For series [5], the system named is HS578T cells. Description: Cell viability, Cell Titer Glo Assay, HS578T cells. Type of series: cell-based, human. The procedure:
(§3) Cell viability was measured in 96-well plates by the Cell Titer Glo Assay (Promega), which is a luminescent assay that is an indicator of live cells as a function of metabolic activity and ATP content.

For series [6], the system named is PC-3 cells. Description: Cell proliferation assay (trypan blue exclusion), PC-3 cells. Type of series: cell-based, human. To be noted: PC-3, RPMI-1640 2% FBS, 10 days; mMesd 2 µM, hMesd (160–197) 4 µM, control peptide 4 µM; n = 3. The protocol: (§4) Cells were seeded into 6-well plates at a density of 10000 cells/well. RPMI-1640 or DMEM medium containing 2% FBS was used as assay media. After 16 h incubation, the cells were treated with Mesd or its peptide for 10 days. Media were changed every other day. At the end of the experiment, cells were harvested and counted using the trypan blue exclusion assay.

Series [7] relates to Wnt/β-catenin signaling. Nature of the series: TOPFlash luciferase reporter assay, LRP6-transfected HEK293 cells. Type of series: cell-based, human. The conditions noted are these: Wnt3A CM 5%, Rspo1 40 ng/ml, mMesd 2 µM, peptide at indicated concentrations, 24 h, normalized to β-galactosidase. The protocol: as §1
The test system of series [8] is PC-3 cells. Nature of the series: Cell viability, Cell Titer Glo Assay, PC-3 cells. The conditions noted are these: Mesd 2 µM or hMesd (160–197) 2 µM with Adriamycin 0.5 µM, 2 days after pre-treatment. Type of series: cell-based, human. The protocol:
as §3
Background: In ATP-based viability assays light output follows the ATP content of the culture.

Series [9] deals with PC-3 cells. The conditions noted are these: cited from earlier work. From the text:
(§5) Treatment of prostate cancer cells with Wnt3A CM or purified recombinant Wnt ...

For series [10], the system named is Wnt/β-catenin signaling. To be noted: cited from earlier work.
Source text: as §5

Series [11] concerns PC-3 tumor. The conditions noted are these: cited from earlier work.
Source text: as §5

The test system of series [12] is HS578T cells. Description: Cell proliferation assay (trypan blue exclusion), HS578T cells. Format: cell-based, human. To be noted: DMEM 2% FBS, 10 days, mMesd 2 µM, hMesd (160–197) 4 µM, control peptide 4 µM, n = 3. The protocol: as §4
In series [13] the test system is Wnt/β-catenin signaling. Nature of the series: Super8XTOPFlash luciferase reporter assay, PC-3 cells. Type of series: cell-based, human. The conditions noted are these: 24 h treatment. The protocol:
as §1

The test system of series [14] is LRP6 phosphorylation. Description: Western blot of phosphorylated LRP6 in C2C12 cells. To be noted: C2C12, Wnt3A CM 5%, 6 h; mMesd 0.5 µM, peptide at indicated concentrations. Format: cell-based, mouse. The protocol:
as §2

B1: Mesd protein: recombinant mouse Mesd protein, full-length; binds mature LRP5 and LRP6, universal antagonist of LRP5/6 modulators (protein)
chain: ADTPGEATPPPRKKKDIRDYNDADMARLLEQWEKDDDIEEGDLPEHKRPSAPIDFSKLDPGKPESILKMTKKGKTLMMFVTVSGNPTEKETEEITSLWQGSLFNANYDVQRFIVGSDRAIFMLRDGSYAWEIKDFLVSQDRCAEVTLEGQMYPGKGGGSKEKNKTKPEKAKKKEGDPKPRASKEDNRAGSRREDL
modifications: 125I (IODO-GEN method) on the radioligand; unlabeled when used as competitor
For B1, the “TOPFlash activity induced by LRP5, LRP5 plus Wnt3A, LRP5 plus Rspo1” value in series [1] is “blocked”. For the same molecule, the MDA-MB-231 tumor growth entry in series [2] is “suppressed”. Further, the “Wnt reporter luciferase activity induced by Wnt1” value in series [3] (HS578T transfected with Wnt1 plasmid) and in series [13] (PC-3 transfected with Wnt1 plasmid) was “significantly repress” throughout. Moreover, the “Wnt reporter luciferase activity” value is given as “significantly repressed” in series [3] (HS578T, endogenous signaling, indicated concentrations) and “significantly repressed” in series [13] (PC-3, endogenous signaling, indicated concentrations). Further, the “OPG expression induced by Rspo1 plus Wnt3A” value in [4] (C2C12, Rspo1 20 ng/ml, Wnt3A CM 2%, mMesd (155–191) 2 µM) is on record as “repressed”. The “Wnt3A-induced OPG expression” value in series [4] (C2C12, Wnt3A CM 5%, peptide at indicated concentrations) was “able to suppress”. Further, the Adriamycin-induced cytotoxicity entry was “potentiate” in series [5] (Mesd 2 µM or hMesd (160–197) 2 µM with Adriamycin 0.5 µM, 2 days after pre-treatment) and “potentiate” in series [8]. Besides, in [5] (single agent: Mesd protein 2 µM or Adriamycin 0.5 µM, Mesd 4 days pre-treatment, then 2 days, n = 4), the “inhibition of cell viability” value is 25%. Further, the cell proliferation result in [6] and in [12] was “displayed inhibitory effect” in each case. For the same molecule, the “TOPFlash activity induced by LRP6, LRP6 plus Wnt3A, LRP6 plus Rspo1” value in series [7] was “blocked”. Also, the “PC-3 cell proliferation in vitro” value in series [9] is “suppressed”. Moreover, the “Wnt/β-catenin signaling in prostate cancer PC-3 cells” value in [10] is “markedly inhibited”. In addition, in series [11], the “PC-3 tumor growth in vivo” value is “suppressed”. Also, in series [14], the “Wnt3A-induced endogenous LRP6 phosphorylation” value is given as “able to suppress”.
